Changes are numbered by the printed parent chain. Names and notes keep the numbering of the source.
B1: G. stearothermophilus glyceraldehyde-3-phosphate dehydrogenase (GsGap, gapDH WT), wild type, SEQ ID NO:6 (Geobacillus stearothermophilus) (protein)
chain: MAVKVGINGFGRIGRNVFRAALKNPDIEVVAVNDLTDANTLAHLLKYDSVHGRLDAEVSVNGNNLVVNGKEIIVKAERDPENLAWGEIGVDIVVESTGRFTKREDAAKHLEAGAKKVIISAPAKNEDITIVMGVNQDKYDPKAHHVISNASCTTNCLAPFAKVLHEQFGIVRGMMTTVHSYTNDQRILDLPHKDLRRARAAAESIIPTTTGAAKAVALVLPELKGKLNGMAMRVPTPNVSVVDLVAELEKEVTVEEVNAALKAAAEGELKGILAYSEEPLVSRDYNGSTVSSTIDALSTMVIDGKMVKVVSWYDNETGYSHRVVDLAAYIASKGL
B2: G. stearothermophilus glyceraldehyde-3-phosphate dehydrogenase (GsGap) mutant mGapDH (mGap, gapDH M6), D34A/L35R/T36K relative to SEQ ID NO:6 (Geobacillus … (protein)
chain: B1 chain with D34A, L35R, T36K

Columns and labels:
[1] = substrate: NC(=O)c1ccc[n+]([C@@H]2O[C@H](COP(=O)([O-])OP(=O)(O)OC[C@H]3O[C@@H](n4cnc5c(N)ncnc54)[C@H](OP(=O)(O)O)[C@@H]3O)[C@@H](O)[C@H]2O)c1; assay: purified protein, by the assay type; settings: other: gapDH WT, cofactor, 50 mM tris pH 7.5, 340 nm
[2] = substrate: NC(=O)c1ccc[n+]([C@@H]2O[C@H](COP(=O)([O-])OP(=O)(O)OC[C@H]3O[C@@H](n4cnc5c(N)ncnc54)[C@H](OP(=O)(O)O)[C@@H]3O)[C@@H](O)[C@H]2O)c1; assay: Kinetics and cofactor specificity of triple mutant mGap (mGapDH); format: biochemical, G. stearothermophilus ATCC12980; settings: other: mGapDH, cofactor, 50 mM tris pH 7.5, 340 nm
Protocol: Enzyme activity and optimization. All of the enzymes used in this work were assayed. The enzymes were assayed in 50 mM tris buffer pH 7.5, 5 mM MgCl, and 5 mM KCl which mirrors the final reaction conditions. The activity of NAD(P)H producing or consuming reactions were monitored at 340 nm. The activity of ATP consuming enzymes were monitored using a coupled assay with Zwf and NADP^+ at 340 nm.
To implement the “molecular rheostat” module, GapDH enzyme was engineered that efficiently uses NADP^+. […] Although the cofactor specificity of GsGap has adjusted before by sequence-based design, the mutant only slightly preferred NADP^+ over NAD^+. To more strongly flip the cofactor specificity of GsGap the crystal structure was examined and basic residues introduced into the loop region proximate to the 2′OH of NAD′ that may help stabilize binding of a 2′ phosphate in NADP^+. A series of mutations were made altering residues D34, L35, and T36 of SEQ ID NO:6. The kinetics and specificity of the best enzyme, a D34A/L35R/T36K triple mutant (herein referred to as mGap), were obtained.

Protein	Km [1] [µM]	Km [2] [µM]
B1	1500 ± 500	–
B2	–	300 ± 40
